The subject of test [1] is PSA. Nature of the test: Western blot of endogenous PSA in stably transfected LNCaP cells. The settings on record: stable LNCaP cells; +doxy; 1 nM DHT; vector alone without doxy = 100%. It counts as cell-based, human. An excerpt: 14. […] (A) The effects of C′-ARA54 and mt-ARA54 on cell proliferation. […] Total cell number was counted by hemocytometer. Values represent the mean±SD of at least three determinations. (B) The effects of C′-ARA54 and mt-ARA54 on AR transcription activity. LNCaP cells stably transfected with pBIG2i (vector alone), pBIG2i-C′-ARA54, pBIG2i-mt-ARA54, or pBIG2i-fl-ARA54 were transiently transfected with MMTV-Luc. […] Values represent the mean±SD of at least three determinations. (C) The effects of C′-ARA54 and mt-ARA54 on PSA expression. […] The 33-kDa of protein was detected as indicated and quantitated by Collage Image Analysis software (Fotodyne). The normalized expression level in the first lane (vector alone without doxy treatment) was set as 100%. Values represent the mean±SD of three separate experiments.
395. […]

In test [2] the target is T1, ARA54-ARA54 interactions (Homo sapiens, UniProt Q9UBS8).
T1 construct: fl-ARA54, full-length ARA54; expressed in transfected cells; host or cells: DU145
T1 sequence (Q9UBS8 1-474): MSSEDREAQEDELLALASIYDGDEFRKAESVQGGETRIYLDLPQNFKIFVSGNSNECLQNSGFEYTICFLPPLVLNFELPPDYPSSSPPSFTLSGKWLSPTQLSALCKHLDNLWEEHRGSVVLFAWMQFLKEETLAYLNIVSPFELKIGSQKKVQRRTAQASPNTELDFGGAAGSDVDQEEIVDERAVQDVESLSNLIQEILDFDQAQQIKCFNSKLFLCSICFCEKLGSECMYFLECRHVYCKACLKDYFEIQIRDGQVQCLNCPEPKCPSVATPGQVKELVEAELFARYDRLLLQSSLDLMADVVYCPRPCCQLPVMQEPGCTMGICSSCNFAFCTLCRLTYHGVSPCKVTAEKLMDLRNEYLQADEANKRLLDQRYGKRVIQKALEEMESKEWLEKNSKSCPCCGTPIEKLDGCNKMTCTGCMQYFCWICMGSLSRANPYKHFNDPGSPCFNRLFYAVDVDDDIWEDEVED
Nature of the test: Mammalian two-hybrid assay of ARA54-ARA54 interaction in DU145 cells. The format is cell-based. As to the method: 15. […] DU145 cells were transfected with 2.5 μg of GAL4-hybrid expression plasmid (pGAL0-AR (A) or pCMX-GAL4 DBD-fl-ARA54 (B)), 2.5 μg of VP16-hybrid expression plasmid (pCMX-VP16-fl-ARA54), and 2.5 μg of pG5-CAT, with or without 2.5 μg of pSG5-C′-ARA54 (C′) or pSG5-mt-ARA54 (mt). pCMX-VP16-C′-ARA54 and pCMX-VP16-mt-ARA54 were also cotransfected to test the interactions with AR (A) and fl-ARA54 (B). The total amount of DNA was adjusted to 11.0 μg with pSG5 and/or pVP16 for each transfection. The CAT activity was determined and each CAT activity is presented relative to that of lane 4 in each panel (black bars; set as 100%). Values represent the mean±SD of at least three determinations.
397. DU145 cells were transiently cotransfected with a GAL4-hybrid expression plasmid, a VP16-hybrid expression plasmid, the reporter plasmid pG5-CAT, and the pCMV-O-gal internal control plasmid. Transfections and CAT assays were performed as described above.

B1: C′-ARA54: C-terminal region (amino acids 361-474) of ARA54 (protein)
chain: RNEYLQADEANKRLLDQRYGKRVIQKALEEMESKEWLEKNSKSCPCCGTPIEKLDGCNKMTCTGCMQYFCWICMGSLSRANPYKHFNDPGSPCFNRLFYAVDVDDDIWEDEVED
modifications: Homo sapien
notes: C-terminal region (amino acids 361-474) of ARA54
B1: in test [1], the “endogenous PSA expression” value stood at 87%. In test [2], the “CAT activity of GAL4-fl-ARA54 / VP16-fl-ARA54 interaction” value is recorded as “returned to the basal levels”.

For the origin of these results see patent US20060270591A1, “Androgen receptor coregulators” (priority 2002, published 2006).
